The numbers were not newly measured in article PMC2627783, which cites them from elsewhere.

This data set addresses IscU (Escherichia coli) (UniProt P0ACD4). The experiment in a line: ITC.

Chain of HscB (P0A6L9 whole entry): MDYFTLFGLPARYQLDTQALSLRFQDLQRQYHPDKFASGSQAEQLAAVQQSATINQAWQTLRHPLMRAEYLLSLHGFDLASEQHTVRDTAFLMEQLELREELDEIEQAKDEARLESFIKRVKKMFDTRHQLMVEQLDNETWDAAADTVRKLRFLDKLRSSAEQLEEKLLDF
Chain of IscU (Escherichia coli) (P0ACD4 whole entry): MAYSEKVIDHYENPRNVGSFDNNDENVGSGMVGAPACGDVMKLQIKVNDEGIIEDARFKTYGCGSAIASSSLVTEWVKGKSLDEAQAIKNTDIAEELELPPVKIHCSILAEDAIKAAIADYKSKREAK

Broadly, the Kd is the concentration at which binding is half-saturated. As to HscB (from UniProt P0A6L9), the dissociation constant (Kd) was 10 µM.
